{
  "source": "patent US8119594B1",
  "about": "“Method of modulating integrin mediated cellular activity and agents useful for same” (Inter-K Pty Limited, priority 1999, dated 2012)",
  "molecules": {"B1": {"name": "β6 Δ746-764 deletion mutant: β6 subunit expressed from a deletion construct lacking the coding sequence for … (protein)", "chain": "WLCLGGAETCEDCLLIGPQCAWCAQENFTHPSGVGERCDTPANLLAKGCQLNFIENPVSQVEILKNKPLSVGRQKNSSDIVQIAPQSLILKLRPGGAQTLQVHVRQTEDYPVDLYYLMDLSASMDDDLNTIKELGSGLSKEMSKLTSNFRLGFGSFVEKPVSPFVKTTPEEIANPCSSIPYFCLPTFGFKHILPLTNDAERFNEIVKNQKISANIDTPEGGFDAIMQAAVCKEKIGWRNDSLHLLVFVSDADSHFGMDSKLAGIVIPNDGLCHLDSKNEYSMSTVLEYPTIGQLIDKLVQNNVLLIFAVTQEQVHLYENYAKLIPGATVGLLQKDSGNILQLIISAYEELRSEVELEVLGDTEGLNLSFTAICNNGTLFQHQKKCSHMKVGDTASFSVTVNIPHCERRSRHIIIKPVGLGDALELLVSPECNCDCQKEVEVNSSKCHHGNGSFQCGVCACHPGHMGPRCECGEDMLSTDSCKEAPDHPSCSGRGDCYCGQCICHLSPYGNIYGPYCQCDNFSCVRHKGLLCGGNGDCDCGECVCRSGWTGEYCNCTTSTDSCVSEDGVLCSGRGDCVCGKCVCTNPGASGPTCERCPTCGDPCNSKRSCIECHLSAAGQAGEECVDKCKLAGATISEEEDFSKDGSVSCSLQGENECLITFLITTDNEGKTIIHSINEKDCPKPPNIPMIMLGVSLATLLIGVVLLCIWKLLVSFHDRKEVAKFSTSTFKNVTYKHREKQKVDLSTDC"}},
  "test_system": "β6-bound ERK",
  "assay": "β6 immunoprecipitation and ERK Western blot in transfected SW480 cells",
  "format": "cell-based, human",
  "conditions": "SW480 transfectants; mAb R6G9 immunoprecipitates probed with E10; FIG. 27(B)",
  "text": "Construction of the β6 Δ746-764 (SEQ ID NO. 19) deletion mutant in the vector pcDNA1neo and failure of the expressed receptor to localise to focal adhesions in Chinese hamster ovary cells has been reported (Cone et al, 1994).\nEqual protein loads of cell lysates prepared from SW480 cells were immunoprecipitated with either anti-β6 monoclonal antibody (mAb R6G9) or matched isotype control antibody.",
  "data": [
    {"molecule": "B1", "values": [
      {"measurement": "reduction of β6-bound ERK relative to wild type receptor", "result": "> 75", "unit": "%"}
    ]}
  ]
}
